Paper PMC7723274
No end group written: not given here.

Columns and labels:
[1] = target: HAdV-5 virion (E1/E3-deleted, replication-defective HAdV-5 vector with an eGFP cassette) (human adenovirus 5 (HAdV-5)) (UniProt P04133)
[2] = target: hexon HVR1/C4 vertex chimera virion (C4 chimera with hexon HVR1 replaced by that of HAdV-64) (human adenovirus 5 (HAdV-5) | human adenovirus 64 (HAdV-64)) (UniProt P04133)
[3] = target: hexon HVR1 chimera virion (HAdV-5 with hexon HVR1 replaced by that of HAdV-64) (human adenovirus 5 (HAdV-5) | human adenovirus 64 (HAdV-64)) (UniProt P04133)
[4] = target: C4 vertex chimera virion (HAdV-5 with penton base residues 288 to 571 from HAdV-64 and the DTET to GYAR mutation in fiber) (human adenovirus 5 (HAdV-5) | human adenovirus 64 (HAdV-64)) (UniProt P04133)
[5] = target: HAdV-64 virion (E3 deleted, replication-competent HAdV-64 virus containing a CMV-eGFP ORF, WT HAdV-64 capsid) (human adenovirus 64 (HAdV-64))
[6] = target: hexon HVR1 chimera virion (HAdV-5 with hexon HVR1 replaced by that of HAdV-64) (human adenovirus 5 (HAdV-5) | human adenovirus 64 (HAdV-64)) (UniProt P04133); remark: listed apart in the source
[7] = target: HAdV-5 virion (E1/E3-deleted, replication-defective HAdV-5 vector with an eGFP cassette) (human adenovirus 5 (HAdV-5)) (UniProt P04133); assay: co-sedimentation; 2.5 μg purified virus with 20 μM HD5 in 150 mM NaCl, 20 mM Tris, 5% glycerol, 1 mM MgCl2, on ice 45 min; discontinuous Histodenz gradient, 4°C, virus band collected; SDS-PAGE, fluorescent stain; HD5 normalised to proteins V and VII and read against a standard curve
[8] = target: HAdV-64 virion (E3 deleted, replication-competent HAdV-64 virus containing a CMV-eGFP ORF, WT HAdV-64 capsid) (human adenovirus 64 (HAdV-64)); assay: as above
[9] = target: hexon HVR1 chimera virion (HAdV-5 with hexon HVR1 replaced by that of HAdV-64) (human adenovirus 5 (HAdV-5) | human adenovirus 64 (HAdV-64)) (UniProt P04133); assay: as above
[10] = target: C4 vertex chimera virion (HAdV-5 with penton base residues 288 to 571 from HAdV-64 and the DTET to GYAR mutation in fiber) (human adenovirus 5 (HAdV-5) | human adenovirus 64 (HAdV-64)) (UniProt P04133); assay: as above
[11] = target: HAdV-5 virion (E1/E3-deleted, replication-defective HAdV-5 vector with an eGFP cassette) (human adenovirus 5 (HAdV-5)) (UniProt P04133); remark: listed apart in the source

For ATCYCRTGRCATRESLSGVCEISGRLYRLCCR (not fully specified; cysteine pairing not given here) [Human defensin 5], the HD5 concentration at which 50% of fiber stays capsid-associated after heating to 48°C (fully associated at 20 μM HD5) [1] was 5 µM, the HD5 concentration at which 50% of fiber stays capsid-associated after heating to 49.3°C, against HAdV-5 (fully associated at 20 μM HD5) (fold lower than HAdV-5) [2] was 2 and the HD5 concentration at which 50% of fiber stays capsid-associated after heating to 48°C, against HAdV-5 (fully associated at 20 μM HD5) (fold higher than HAdV-5) [3] was > 2. For the same binder, the HD5 concentration at which 50% of fiber stays capsid-associated after heating to 49.3°C (fully associated at 20 μM HD5) [4] was 5 µM, the infectivity on A549 cells of virus incubated with 5 μM or 10 μM HD5 (protocol 1) [5] was 4 to 5 fold and the HD5 IC50 of infection on A549 cells, against HAdV-5 (fold over HAdV-5) [6] was 5. The stoichiometry N (molecules of HD5 per virion) [7] was 7090, the fold less HD5 bound per virion than to HAdV-5 (fold less than HAdV-5) [8] was 83 and the fold less HD5 bound per virion than to HAdV-5 (fold less than HAdV-5) [9] was 5. It also gave a fold more HD5 bound per virion than to HAdV-5 (fold more than HAdV-5) [10] of 2.3 and a binding of AF488-labeled virus to A549 cells after pre-incubation with 2.5, 5 and 10 μM HD5, fold change in GMF against no HD5 [11] of 1.4 to 2.1 fold.
